The target of the test is T1, human blood coagulation factor VIII C2 domain (human, UniProt P00451).
T1 construct: C2 domain of human blood coagulation factor VIII; pET15b with N-terminal His6 tag and a thrombin cleavage site; also called fVIII C2 domain
Put plainly: crystal structure; C2 domain/3E6 FAB binary complex formed at 37 °C for 30 minutes with 1.5-fold molar excess of C2 domain, separated on Superdex 75; crystals from 10 mM MES (pH 6.4-6.8), 20% (w/v) PEG 8000; two complexes in the asymmetric unit; 2.61 Å. As to conditions: both partners purified.

T1 sequence (P00451 2190-2351): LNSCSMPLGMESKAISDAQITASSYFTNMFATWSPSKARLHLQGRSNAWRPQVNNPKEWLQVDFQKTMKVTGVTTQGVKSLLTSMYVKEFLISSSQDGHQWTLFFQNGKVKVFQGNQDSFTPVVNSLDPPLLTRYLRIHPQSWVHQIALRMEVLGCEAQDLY

B1: 3E6 antigen-binding fragment (FAB) of the classical anti-fVIII C2 domain inhibitory antibody 3E6 (Fab, V domains shown)
VH: QIQLVQSGPELKKPGKTVKISCKASDYTFTDYSLHWVKQAPGKGLKWMGWINTETGDPAYADDFKGRFAFSLETSVRTAYLQINNLKNEDTAIYFCAREDDGLASWGQGTTLTVSS
VL: QIVLTQSPAIMSASPGEKVTMTCSASSTVSYMYWYQQKPGSSPRFLISDTSNLASGVPVRFSGSGSGTSYSLTISRIEAEDAATYYCQHWSSYPLTFGGGTKLELK
notes: heavy chain of the 3E6 FAB is chain A (complex 1) and chain E (complex 2) of PDB 4XZU; light chain of the 3E6 FAB is chain B (complex 1) and chain F (complex 2) of PDB 4XZU; Fab made by papain cleavage of the murine monoclonal IgG; complex 1 (chains A, B) is the more complete model; also called 3E6 FAB; 3E6 antibody
With B1, the binding result was “binds”.

Values taken from PMC4657047, “Structure of the Human Factor VIII C2 Domain in Complex with the 3E6 Inhibitory Antibody” (Scientific Reports, 2015).
